Biological target: GST-β3 integrin cytodomain (human) (UniProt P05106)
Test: ELISA

Sequence of UniProt P05106 (P05106 27-788): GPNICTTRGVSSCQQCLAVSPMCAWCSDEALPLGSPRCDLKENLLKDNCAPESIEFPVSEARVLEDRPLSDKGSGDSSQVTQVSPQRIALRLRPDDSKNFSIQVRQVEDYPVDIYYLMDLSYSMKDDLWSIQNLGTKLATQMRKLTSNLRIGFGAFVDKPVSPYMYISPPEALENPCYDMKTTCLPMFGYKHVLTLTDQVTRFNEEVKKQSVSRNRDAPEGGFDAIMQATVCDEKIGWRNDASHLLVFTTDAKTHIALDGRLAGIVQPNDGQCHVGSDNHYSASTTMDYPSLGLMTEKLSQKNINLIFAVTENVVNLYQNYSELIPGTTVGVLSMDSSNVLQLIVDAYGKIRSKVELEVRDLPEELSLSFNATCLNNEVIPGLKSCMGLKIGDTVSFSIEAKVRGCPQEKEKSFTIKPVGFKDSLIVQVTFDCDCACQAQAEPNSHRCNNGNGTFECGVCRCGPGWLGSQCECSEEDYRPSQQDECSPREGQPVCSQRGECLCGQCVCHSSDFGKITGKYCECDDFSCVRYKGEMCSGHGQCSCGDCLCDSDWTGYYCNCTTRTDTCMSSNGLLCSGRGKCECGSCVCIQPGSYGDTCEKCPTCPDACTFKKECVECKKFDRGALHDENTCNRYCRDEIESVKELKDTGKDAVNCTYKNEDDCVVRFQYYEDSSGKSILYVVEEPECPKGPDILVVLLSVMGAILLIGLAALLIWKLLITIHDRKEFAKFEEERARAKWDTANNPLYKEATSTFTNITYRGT

- fold reduction of affinity against untreated PKD1: 5 fold
B1: His-PKD1 treated with alkaline phosphatase (enzyme)
chain: MSVPPLLRPPSPLLPAAAAVAAAAAALVPGSGPAPFPAPGAAPAGGISFHLQIGLSREPVLLLQDSSGDYSLAHVREMACSIVDQKFPECGFYGLYDKILLFRHDPASDNILQLVKIASDIQEGDLIEVVLSASATFEDFQIRPHALFVHSYRAPAFCDHCGEMLWGLVRQGLKCEGCGLNYHKRCAFKIPNNCSGVRRRRLSNVSLTGLGTVRTASAEFSTSVPDEPLLSPVSPGFEQKSPSESFIGREKRSNSQSYIGRPIQLDKLLMSKVKVPHTFVIHSYTRPTVCQFCKKLLKGLFRQGLQCKDCRFNCHKRCAPKVPNNCLGEVTINGELLSPGAESDVVMEEGSDDNDSERNSGLMDDMDEAMVQDTEMALAEGQSGGAEMQDPDADQEDSNRTISPSTSNNIPLMRVVQSVKHTKRRSSTVMKEGWMVHYTSKDTLRKRHYWRLDSKCITLFQNDTGSRYYKEIPLSEILCLEPAKPSALTPVGATPHCFEITTANVVYYVGENVVNPSSSPPNNSVLPSGIGPDVARMWEVAIQHALMPVIPKGSSVGSGSNSHKDISVSISVSNCQIQENVDISTVYQIFPDEVLGSGQFGIVYGGKHRKTGRDVAIKIIDKLRFPTKQESQLRNEVAILQNLHHPGVVNLECMFETPERVFVVMEKLHGDMLEMILSSEKGRLPEHITKFLITQILVALRHLHFKNIVHCDLKPENVLLASADPFPQVKLCDFGFARIIGEKSFRRSVVGTPAYLAPEVLRNKGYNRSLDMWSVGVIIYVSLSGTFPFNEDEDIHDQIQNAAFMYPPNPWKEISHEAIDLINNLLQVKMRKRYSVDKTLSHPWLQDYQTWLDLRELECRIGERYITHESDDSRWEQYAGEQGLQYPAHLISLSASHSDSPEAEEREMKALSERVSIL
modifications: ~80% dephosphorylation of the kinase by alkaline phosphatase
